Data published in PMC4963197, “Phosphorylation acts positively and negatively to regulate MRTF-A subcellular localisation and activity” (eLife, 2016).

Assays:
G-actin = target: T1, G-actin (Oryctolagus cuniculus, UniProt P68135); assay: Size exclusion chromatography of G-actin / MRTF-A(67–199) complexes; type: binding; settings: SEC, recombinant MRTF-A(67–199)
T1 construct: Actin was prepared as described ([Mouilleron et al., 2008]); from tissue; host or cells: rabbit skeletal muscle (own knowledge of the cited method)
Procedure: GST-fusions were expressed in E. coli Rosetta (DE3) pLysS (Novagen). Lysis was in 50 mM Tris-HCl pH 7.5, 300 mM NaCl, 1% TX-100, 5 mM DTT, 10 mM EDTA pH 8, 1 mM PMSF, 15 μg/mL Benzamidine, followed by passage through a French press. Following adsorption onto glutathione-Sepharose, proteins were recovered by cleavage with GST-3C protease at 4°C overnight in 50 mM Tris-HCl (pH 7.5), 100 mM NaCl, 1 mM DTT. Crm1 and Ran(1–180) Q69L were purified as described ([Güttler et al., 2010]).
Preparation of LatB-actin and fluorescence polarisation anisotropy assay were described ([Guettler et al., 2008]). Size exclusion chromatography was on Superdex 200 column equilibrated in 20 mM Tris (pH 8), 100 mM NaCl, 3 mM MgCl2, 0.2 mM EGTA, 0.3 mM TCEP [(tris(2-carboxyethyl)phosphine)], 5% (v/v) glycerol, calibrated with globular proteins of known molecular weight.

Crm1 = assay: GST pulldown of recombinant Crm1; type: binding; settings: Ran 1–180 Q69L, 3 hr at 4°C
Procedure: For GST pulldown assays, glutathione-sepharose was saturated with GST-fusion proteins, washed in binding buffer (50 mM Tris-HCl pH 7.5, 100 mM NaCl, 10 mM MgCl2, 0.05% NP-40), and incubated with purified recombinant Crm1, Ran(1–180) Q69L or ERK2 for 3 hr at 4°C. After four washes with binding buffer, proteins were eluted in SDS loading buffer for analysis. For kinase assays, glutathione-Sepharose was saturated with GST-MRTF 2–199, washed in binding buffer, and incubated with purified recombinant ERK2 and actin in binding buffer with 250 μM ATP and 10 mg/ml BSA, at 30°C. The reaction was stopped by addition of SDS loading buffer.

B1: MRTF-A(67–199) WT: recombinant MRTF-A(67–199), intact RPEL domain (protein, UniProt Q8K4J6 67-199, looked up, fragment)
chain: SRPERAELVRMHILEETSAEPSLQAKQLKLKRARLADDLNEKIAQRPGPMELVEKNILPVESSLKEAIIVGQVNYPKVADSSSFDEDSSDALSPEQPASHESQGSVPSPLESRVSDPLPSATSISPTQVLSQL
apparent molecular mass of G-actin complex (G-actin; Superdex 200, 20 mM Tris (pH 8), 100 mM NaCl, 3 mM MgCl2, 0.2 mM EGTA, 0.3 mM TCEP, 5% glycerol): 139.8 kDa
apparent stoichiometry of G-actin binding (G-actin; Superdex 200, pH 8, calibrated with globular proteins): 3.0 actins

B2: MRTF residues 2–67: MRTF-A N-terminal residues 2–67 containing NES1 (protein, UniProt Q8K4J6 2-67, looked up, fragment)
chain: TLLEPEMLMMAVQSVLQLKLQQRRTREELVSQGIMPPLKSPAAFHEQRRSLERARTEDYLKRKIRS
recovery of recombinant Crm1 (Crm1): could recover recombinant Crm1 from solution in a pulldown assay
